Test results as given in US20130266568A1 (Hoffmann-La Roche, published 2013).

How the values were obtained:
[1] = target: T1, Her3 on Her3-expressing, cMet negative T47D cells / Her3-positive cancer cells (UniProt P21860 20-1342, limits assumed); assay: FACS on live T47D cells (cMet-/Her3+); x axis fluorescence (log), y axis % of Max; antibody concentration not shown
T1 construct: whole, on cells

[2] = target: T2, cMet (antigen in the SPR measurements) (UniProt P08581 25-932, limits assumed); assay: SPR, cleaved against restricted form
[3] = target: T2, cMet (antigen in the SPR measurements); assay: SPR; after protease (MMP2/9) cleavage; dsFv unleashed
[4] = target: T2, cMet (antigen in the SPR measurements); assay: SPR
[5] = target: T2, cMet (antigen in the SPR measurements); assay: SPR, KD uncleaved against KD after protease cleavage
[6] = target: T2, cMet (antigen in the SPR measurements); assay: SPR; not cleaved; dsFv sterically restricted
[7] = target: HER3 (antigen in the SPR measurements) (UniProt P21860 20-643, limits assumed); assay: SPR
Chain of HER3 (antigen in the SPR measurements) (P21860 20-643 limits assumed): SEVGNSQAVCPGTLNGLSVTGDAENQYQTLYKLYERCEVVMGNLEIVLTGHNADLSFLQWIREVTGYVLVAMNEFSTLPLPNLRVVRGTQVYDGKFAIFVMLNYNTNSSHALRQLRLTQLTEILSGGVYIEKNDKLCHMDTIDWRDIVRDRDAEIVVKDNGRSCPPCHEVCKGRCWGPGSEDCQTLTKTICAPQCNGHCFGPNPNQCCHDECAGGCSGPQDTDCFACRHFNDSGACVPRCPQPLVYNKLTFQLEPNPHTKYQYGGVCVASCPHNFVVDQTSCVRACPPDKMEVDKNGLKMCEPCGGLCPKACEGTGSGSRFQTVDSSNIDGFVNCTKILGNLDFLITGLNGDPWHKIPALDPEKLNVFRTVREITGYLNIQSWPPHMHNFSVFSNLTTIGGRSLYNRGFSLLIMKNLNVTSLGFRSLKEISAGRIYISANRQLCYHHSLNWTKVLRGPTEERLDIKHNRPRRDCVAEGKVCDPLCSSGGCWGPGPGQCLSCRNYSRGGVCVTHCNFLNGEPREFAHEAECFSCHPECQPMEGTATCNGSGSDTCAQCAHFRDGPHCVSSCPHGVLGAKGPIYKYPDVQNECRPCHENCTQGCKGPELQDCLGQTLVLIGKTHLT

T2 sequence (P08581 25-932 limits assumed): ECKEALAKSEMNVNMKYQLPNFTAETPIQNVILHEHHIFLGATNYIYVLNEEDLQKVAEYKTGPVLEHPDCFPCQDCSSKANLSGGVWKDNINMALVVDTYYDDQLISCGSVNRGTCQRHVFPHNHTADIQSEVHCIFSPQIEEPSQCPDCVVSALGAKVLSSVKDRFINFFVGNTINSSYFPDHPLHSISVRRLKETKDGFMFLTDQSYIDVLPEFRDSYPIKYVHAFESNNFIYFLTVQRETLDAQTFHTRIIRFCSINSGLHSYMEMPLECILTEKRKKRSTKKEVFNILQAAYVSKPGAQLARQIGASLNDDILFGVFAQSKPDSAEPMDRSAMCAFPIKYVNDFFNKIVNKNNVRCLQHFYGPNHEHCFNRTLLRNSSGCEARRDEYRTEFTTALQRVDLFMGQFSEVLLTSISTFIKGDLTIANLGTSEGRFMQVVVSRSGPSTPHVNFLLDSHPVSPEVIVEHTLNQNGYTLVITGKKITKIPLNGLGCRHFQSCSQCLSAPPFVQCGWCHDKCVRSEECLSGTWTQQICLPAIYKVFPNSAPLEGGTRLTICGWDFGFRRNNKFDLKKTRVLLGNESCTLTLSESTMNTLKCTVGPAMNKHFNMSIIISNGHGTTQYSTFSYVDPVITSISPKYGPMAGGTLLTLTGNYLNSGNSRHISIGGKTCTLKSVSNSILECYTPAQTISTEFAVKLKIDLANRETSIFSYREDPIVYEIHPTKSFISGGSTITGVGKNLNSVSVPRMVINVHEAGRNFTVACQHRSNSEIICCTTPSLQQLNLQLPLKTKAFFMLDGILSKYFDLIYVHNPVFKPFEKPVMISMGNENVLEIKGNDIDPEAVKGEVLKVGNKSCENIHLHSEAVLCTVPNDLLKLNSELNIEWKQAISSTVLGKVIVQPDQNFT
T1 sequence (P21860 20-1342 limits assumed, stated change not applied): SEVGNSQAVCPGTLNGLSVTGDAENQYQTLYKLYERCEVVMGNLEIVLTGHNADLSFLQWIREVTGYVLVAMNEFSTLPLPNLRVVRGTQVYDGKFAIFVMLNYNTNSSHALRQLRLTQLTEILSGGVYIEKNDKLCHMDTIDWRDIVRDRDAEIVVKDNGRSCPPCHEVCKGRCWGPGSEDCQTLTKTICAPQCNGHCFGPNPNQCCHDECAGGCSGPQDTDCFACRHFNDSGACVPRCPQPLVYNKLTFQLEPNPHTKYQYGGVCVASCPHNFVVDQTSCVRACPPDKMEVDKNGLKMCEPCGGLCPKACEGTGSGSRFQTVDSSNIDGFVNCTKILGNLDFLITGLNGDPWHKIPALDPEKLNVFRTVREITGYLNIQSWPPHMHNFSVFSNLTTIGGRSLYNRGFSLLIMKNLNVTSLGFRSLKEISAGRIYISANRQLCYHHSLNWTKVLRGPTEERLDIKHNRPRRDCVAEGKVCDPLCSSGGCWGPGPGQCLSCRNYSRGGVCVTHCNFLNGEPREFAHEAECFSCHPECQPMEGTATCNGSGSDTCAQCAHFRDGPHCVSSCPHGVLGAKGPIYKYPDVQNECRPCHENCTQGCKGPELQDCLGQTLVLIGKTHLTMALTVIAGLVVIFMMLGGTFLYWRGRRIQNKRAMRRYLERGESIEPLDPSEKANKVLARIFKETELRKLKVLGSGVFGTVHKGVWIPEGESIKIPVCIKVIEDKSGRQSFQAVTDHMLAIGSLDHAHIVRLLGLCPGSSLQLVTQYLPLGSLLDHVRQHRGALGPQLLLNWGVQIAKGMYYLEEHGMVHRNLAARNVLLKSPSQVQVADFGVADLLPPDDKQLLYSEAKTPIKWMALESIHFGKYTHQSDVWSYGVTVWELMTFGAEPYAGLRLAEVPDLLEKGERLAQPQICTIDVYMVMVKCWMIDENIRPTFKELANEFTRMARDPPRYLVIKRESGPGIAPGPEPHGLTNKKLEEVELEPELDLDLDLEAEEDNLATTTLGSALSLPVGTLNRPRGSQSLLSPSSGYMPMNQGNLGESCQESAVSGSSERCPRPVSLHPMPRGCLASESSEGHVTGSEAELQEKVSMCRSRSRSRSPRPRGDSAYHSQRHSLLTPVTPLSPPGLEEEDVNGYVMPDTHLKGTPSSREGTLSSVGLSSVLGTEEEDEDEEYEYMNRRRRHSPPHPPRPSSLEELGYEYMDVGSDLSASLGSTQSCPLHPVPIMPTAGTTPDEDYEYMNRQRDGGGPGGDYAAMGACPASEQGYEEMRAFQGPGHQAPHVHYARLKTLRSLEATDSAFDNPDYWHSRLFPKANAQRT

Binder | binding result [1] | fold improvement of affinity by MMP processing [2] [fold] | Kd [3] [nM] | koff [4] [s⁻¹] | kon [4] [M⁻¹ s⁻¹] | reduced binding affinity as compared to after the protease cleavage [5] [times] | Kd [4] [nM] | Kd [6] [nM] | Kd [7] [nM] | koff [7] [s⁻¹] | kon [7] [M⁻¹ s⁻¹]
Her3/MetSS_KHSS_PreSci (protease cleavage site = prescission cleavage site), not cleaved (restricted form) (bispecific antibody, human IgG1, kappa, Trivalent: whole anti-Her3 IgG (knobs-into-holes) with one disulfide-stabilized anti-cMet Fv tethered to both CH3 C-termini; Constructs were designed with a leader peptide) heavy 1: not shown heavy 2: not shown light: DIQMTQTTSSLSASLGDRVTISCRARQDISNYLNWYQRKPDGTVKLLIYYTSRLHSGVPSRFSGSGSGTDYSLTISNLEQEDIATYFCQQGNTFPWTFGGGTKLEIKRTVAAPSVFIFPPSDEQLKSGTASVVCLLNNFYPREAKVQWKVDNALQSGNSQESVTEQDSKDSTYSLSSTLTLSKADYEKHKVYACEVTHQGLSSPVTKSFNRGEC | binds |  |  |  |  |  |  |  |  |  | 
Her3/MetSS_KHSS_M1 after protease cleavage (bispecific antibody, HC2 is cut in the connector; the VL fragment stays disulfide-linked to VH) heavy 1: not shown heavy 2: not shown MLSQSGGGGSGGGGSDIQMTQSPSSLSASVGDRVTITCKSSQSLLYTSSQKNYLAWYQQKPGKAPKLLIYWASTRESGVPSRFSGSGSGTDFTLTISSLQPEDFATYYCQQYYAYPWTFGCGTKVEIKR light: DIQMTQTTSSLSASLGDRVTISCRARQDISNYLNWYQRKPDGTVKLLIYYTSRLHSGVPSRFSGSGSGTDYSLTISNLEQEDIATYFCQQGNTFPWTFGGGTKLEIKRTVAAPSVFIFPPSDEQLKSGTASVVCLLNNFYPREAKVQWKVDNALQSGNSQESVTEQDSKDSTYSLSSTLTLSKADYEKHKVYACEVTHQGLSSPVTKSFNRGEC |  | > 5 | 7.08 | 0.00015 | 21200 |  |  |  |  |  | 
Her3/MetSS_KHSS_M3 (MMP 2 and 9 cleavage site - variant 3), not cleaved (bispecific antibody, human IgG1, kappa, Trivalent anti-Her3 IgG with restricted anti-cMet dsFv) heavy 1: not shown heavy 2: not shown light: DIQMTQTTSSLSASLGDRVTISCRARQDISNYLNWYQRKPDGTVKLLIYYTSRLHSGVPSRFSGSGSGTDYSLTISNLEQEDIATYFCQQGNTFPWTFGGGTKLEIKRTVAAPSVFIFPPSDEQLKSGTASVVCLLNNFYPREAKVQWKVDNALQSGNSQESVTEQDSKDSTYSLSSTLTLSKADYEKHKVYACEVTHQGLSSPVTKSFNRGEC |  |  |  | 0.000263 | 2970 | 17 | 88.6 |  |  |  | 
Her3/MetSS_KHSS_M1 (MMP 2 and 9 cleavage site - variant 1), not cleaved (bispecific antibody, human IgG1, kappa, Trivalent anti-Her3 IgG with restricted anti-cMet dsFv) heavy 1: not shown heavy 2: not shown light: DIQMTQTTSSLSASLGDRVTISCRARQDISNYLNWYQRKPDGTVKLLIYYTSRLHSGVPSRFSGSGSGTDYSLTISNLEQEDIATYFCQQGNTFPWTFGGGTKLEIKRTVAAPSVFIFPPSDEQLKSGTASVVCLLNNFYPREAKVQWKVDNALQSGNSQESVTEQDSKDSTYSLSSTLTLSKADYEKHKVYACEVTHQGLSSPVTKSFNRGEC |  |  |  | 0.000374 | 151 | 350 |  | 2480 |  |  | 
Her3/MetSS_KHSS_U (protease cleavage site = uPA cleavage site), not cleaved (bispecific antibody, human IgG1, kappa, Trivalent anti-Her3 IgG with restricted anti-cMet dsFv) heavy 1: not shown heavy 2: not shown light: DIQMTQTTSSLSASLGDRVTISCRARQDISNYLNWYQRKPDGTVKLLIYYTSRLHSGVPSRFSGSGSGTDYSLTISNLEQEDIATYFCQQGNTFPWTFGGGTKLEIKRTVAAPSVFIFPPSDEQLKSGTASVVCLLNNFYPREAKVQWKVDNALQSGNSQESVTEQDSKDSTYSLSSTLTLSKADYEKHKVYACEVTHQGLSSPVTKSFNRGEC |  |  |  | 0.000193 | 9670 | 6 | 20 |  | 2.34 | 0.000372 | 159000
Her3/MetSS_KHSS_M2 after protease cleavage (MMP-2 processed) (bispecific antibody, HC2 is cut in the connector; the VL fragment stays disulfide-linked to VH) heavy 1: not shown heavy 2: not shown LWAQSGGGGSGGGGSDIQMTQSPSSLSASVGDRVTITCKSSQSLLYTSSQKNYLAWYQQKPGKAPKLLIYWASTRESGVPSRFSGSGSGTDFTLTISSLQPEDFATYYCQQYYAYPWTFGCGTKVEIKR light: DIQMTQTTSSLSASLGDRVTISCRARQDISNYLNWYQRKPDGTVKLLIYYTSRLHSGVPSRFSGSGSGTDYSLTISNLEQEDIATYFCQQGNTFPWTFGGGTKLEIKRTVAAPSVFIFPPSDEQLKSGTASVVCLLNNFYPREAKVQWKVDNALQSGNSQESVTEQDSKDSTYSLSSTLTLSKADYEKHKVYACEVTHQGLSSPVTKSFNRGEC |  | > 5 |  | 0.000141 | 19700 |  | 7.14 |  | 1.85 | 0.000327 | 177000
Her3/MetSS_KHSS_M2 (MMP 2 and 9 cleavage site - variant 2), not cleaved (bispecific antibody, human IgG1, kappa, Trivalent anti-Her3 IgG with restricted anti-cMet dsFv) heavy 1: not shown heavy 2: not shown light: DIQMTQTTSSLSASLGDRVTISCRARQDISNYLNWYQRKPDGTVKLLIYYTSRLHSGVPSRFSGSGSGTDYSLTISNLEQEDIATYFCQQGNTFPWTFGGGTKLEIKRTVAAPSVFIFPPSDEQLKSGTASVVCLLNNFYPREAKVQWKVDNALQSGNSQESVTEQDSKDSTYSLSSTLTLSKADYEKHKVYACEVTHQGLSSPVTKSFNRGEC |  |  |  | 0.000417 | 3650 | 16 | 114 |  | 1.92 | 0.000324 | 169000
Her3/MetSS_KHSS_M3 after protease cleavage (bispecific antibody, HC2 is cut in the connector; the VL fragment stays disulfide-linked to VH) heavy 1: not shown heavy 2: not shown IAGQSGGGGSGGGGSDIQMTQSPSSLSASVGDRVTITCKSSQSLLYTSSQKNYLAWYQQKPGKAPKLLIYWASTRESGVPSRFSGSGSGTDFTLTISSLQPEDFATYYCQQYYAYPWTFGCGTKVEIKR light: DIQMTQTTSSLSASLGDRVTISCRARQDISNYLNWYQRKPDGTVKLLIYYTSRLHSGVPSRFSGSGSGTDYSLTISNLEQEDIATYFCQQGNTFPWTFGGGTKLEIKRTVAAPSVFIFPPSDEQLKSGTASVVCLLNNFYPREAKVQWKVDNALQSGNSQESVTEQDSKDSTYSLSSTLTLSKADYEKHKVYACEVTHQGLSSPVTKSFNRGEC |  | > 5 |  | 0.000105 | 20100 |  | 5.2 |  |  |  | 
